# Experimental data reported in patent US20240052033A1 (Molecular Partners, published 2024).
# T1: biotinylated human scCD3εγ (scCD3εγ_Avi-Bio): single-chain human CD3ε/CD3γ extracellular domains joined by a … (human, biotinylated in vitro with BirA at the C-terminal Avi-tag)
# T1 construct: monomeric; also called recombinant human CD3 target; human CD3 (SPR)
# T1 chain: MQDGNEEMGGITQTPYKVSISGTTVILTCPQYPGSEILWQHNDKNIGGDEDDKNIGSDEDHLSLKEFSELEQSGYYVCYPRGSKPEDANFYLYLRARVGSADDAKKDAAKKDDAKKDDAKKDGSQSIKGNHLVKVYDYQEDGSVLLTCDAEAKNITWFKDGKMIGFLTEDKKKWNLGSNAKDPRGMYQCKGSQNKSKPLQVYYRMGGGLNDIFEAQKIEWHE
# Columns and labels:
# [1] = target: T2, human CD3 on primary human pan-T cells (human, UniProt P07766 23-207; P09693 23-182; P04234 22-171; P20963 22-164); test: Mirrorball laser scanning imaging cytometry on primary human pan-T cells with 600 µM HSA; detection with anti-penta-His Alexa Fluor 488; Median (FL-2 Mean Intensity) [A]
# T2 construct: whole, on cells; Native CD3 complex (pairs εγ, εδ, ζζ) on T cells isolated from human PBMCs; it is associated with the T cell receptor on the cells; also called CD3 on Pan-T cells; CD3 on T cells
# [2] = target: T2, human CD3 on primary human pan-T cells; test: Mirrorball laser scanning imaging cytometry on primary human pan-T cells, 600 µM HSA, anti-penta-His Alexa Fluor 488 detection
# [3] = target: biotinylated human scCD3εγ (scCD3εγ_Avi-Bio): single-chain human CD3ε/CD3γ extracellular domains joined by a 26 amino acid linker, with a C-terminal Avi-tag (human); test: SPR (ProteOn), biotinylated scCD3εγ on NLC chip, DARPin as analyte 4-64 nM, PBS with 0.005% Tween 20; n = 6
# [4] = target: biotinylated human scCD3εγ (scCD3εγ_Avi-Bio): single-chain human CD3ε/CD3γ extracellular domains joined by a 26 amino acid linker, with a C-terminal Avi-tag (human); test: SPR (ProteOn), biotinylated scCD3εγ on NLC chip, DARPin as analyte 4-64 nM, PBS with 0.005% Tween 20; n = 2
# [5] = target: biotinylated human scCD3εγ (scCD3εγ_Avi-Bio): single-chain human CD3ε/CD3γ extracellular domains joined by a 26 amino acid linker, with a C-terminal Avi-tag (human); test: SPR (ProteOn), biotinylated scCD3εγ on NLC chip, DARPin as analyte 4-64 nM, PBS with 0.005% Tween 20; n = 4
# [6] = target: T2, human CD3 on primary human pan-T cells; test: Mirrorball laser scanning imaging cytometry on primary human pan-T cells with 600 µM HSA; detection with anti-penta-His Alexa Fluor 488; Median (FL-2 Mean Intensity) [B]
# Procedure: The determination of CD3 binding was performed with primary human T cells using Mirrorball laser scanning imaging cytometry. Therefore, primary T cells were isolated from human peripheral blood mononuclear cells (PBMCs) using a pan-T cell purification kit (Miltenyi Biotec). […] To generate the tri-specific TCE proteins, DARPin® protein #1, DARPin® protein #2, DARPin® protein #3 and DARPin® protein #4, respectively, was subcloned and expressed as described above into a derivative of the pQE30 (Qiagen) expression vector, encoding an N-terminal His-tag, followed by two different TAA-specific ankyrin repeat domains (in the order TAA2- and TAA3-specific, respectively), and then followed by one of the CD3-specific ankyrin repeat domains of the invention. […] After washing, CD3 binding was detected by 1:100-diluted anti-penta-His Alexa Fluor 488 antibody (Qiagen). […] Median of mean fluorescence intensities of Alexa Fluor 488 binding on far-red counterstained cells were measured by Mirrorball using Cellista software (SPT Labtech) and data was plotted using GraphPad Prism 8.
# [7] = target: T1, biotinylated human scCD3εγ …; test: ribosome display selection; crude extract HTRF on recombinant human CD3 target
# Excerpt: Using ribosome display (Hanes, J. and Plückthun, A., PNAS 94, 4937-42, 1997), many ankyrin repeat proteins with binding specificity for human scCD3 were selected from DARPin® libraries similar as described by Binz et al. 2004 (loc. cit.). […] For example, the ankyrin repeat domain of SEQ ID NO: 1 constitutes an amino acid sequence of a selected binding protein comprising an ankyrin repeat domain with binding specificity for scCD3. Individual ankyrin repeat modules from such ankyrin repeat domains with binding specificity to scCD3 are provided, e.g., in SEQ ID NO: 5 to 9.
# T2 sequence (P07766 23-207, chain 1 of 4): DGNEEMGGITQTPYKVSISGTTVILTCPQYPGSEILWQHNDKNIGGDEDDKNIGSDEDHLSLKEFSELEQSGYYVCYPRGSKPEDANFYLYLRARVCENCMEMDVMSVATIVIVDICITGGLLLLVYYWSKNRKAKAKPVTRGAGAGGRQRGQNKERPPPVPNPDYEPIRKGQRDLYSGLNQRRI
# T2 sequence (P09693 23-182, chain 2 of 4): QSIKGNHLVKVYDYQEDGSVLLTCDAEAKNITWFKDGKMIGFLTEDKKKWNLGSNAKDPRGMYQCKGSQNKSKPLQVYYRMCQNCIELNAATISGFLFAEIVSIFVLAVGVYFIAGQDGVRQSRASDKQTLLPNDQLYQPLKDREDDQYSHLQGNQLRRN
# T2 sequence (P04234 22-171, chain 3 of 4): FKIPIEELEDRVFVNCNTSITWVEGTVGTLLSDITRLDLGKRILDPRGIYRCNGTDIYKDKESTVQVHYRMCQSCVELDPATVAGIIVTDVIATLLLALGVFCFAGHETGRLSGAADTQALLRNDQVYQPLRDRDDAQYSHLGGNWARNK
# T2 sequence (P20963 22-164, chain 4 of 4): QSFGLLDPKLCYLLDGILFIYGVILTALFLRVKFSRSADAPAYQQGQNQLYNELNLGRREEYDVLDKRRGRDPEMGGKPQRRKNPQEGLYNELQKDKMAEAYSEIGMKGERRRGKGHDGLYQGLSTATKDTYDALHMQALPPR
binder,measurement,setting,value
"DARPin® protein #4 with TAA2/TAA3 domains (trispecific format: His-tag, TAA2-specific domain, TAA3-specific domain, CD3-specific domain) (designed binder, part only; not given: CD123 and CD33 DARPin domains, not shown: small tags and cut ends) chain, part: MRGSHHHHHHGSGSPTPTPTTPTPTPTTPTPTPTGSPTPTPTTPTPTPTTPTPTPTDLGQKLLEAAWAGQLDEVRILLKAGADVNAKNSRGWTPLHTAAQTGHLEIFEVLLKAGADVNAKTNKRVTPLHLAAALGHLEIVEVLLKAGADVNARDTWGTTPADLAAKYGHRDIAEVLQKAA",EC50 (read off the curve),[1],6 nM
same,EC50,[2],5 to 15 nM
same,Kd,[3],6 nM
same,koff,[3],0.00041 s⁻¹
same,kon,[3],82000 M⁻¹ s⁻¹
"DARPin® protein #2 with TAA2/TAA3 domains (trispecific format: His-tag, TAA2-specific domain, TAA3-specific domain, CD3-specific domain) (designed binder, part only; not given: CD123 and CD33 DARPin domains, not shown: small tags and cut ends) chain, part: MRGSHHHHHHGSGSPTPTPTTPTPTPTTPTPTPTGSPTPTPTTPTPTPTTPTPTPTDLGQKLLEAAWAGQDDEVRELLKAGADVNAKNSRGWTPLHTAAQTGHLEIFEVLLKAGADVNAKDDKGVTPLHLAAALGHLEIVEVLLKAGADVNAQDSWGTTPADLAAKYGHEDIAEVLQKAA",Kd,[4],35 nM
same,koff,[4],0.0015 s⁻¹
same,kon,[4],49000 M⁻¹ s⁻¹
same,EC50,[2],250 to 400 nM
"DARPin® protein #3 with TAA2/TAA3 domains (trispecific format: His-tag, TAA2-specific domain, TAA3-specific domain, CD3-specific domain) (designed binder, part only; not given: CD123 and CD33 DARPin domains, not shown: small tags and cut ends) chain, part: MRGSHHHHHHGSGSPTPTPTTPTPTPTTPTPTPTGSPTPTPTTPTPTPTTPTPTPTDLGQKLLEAAWAGQDDEVRELLKAGADVNAKNSRGWTPLHTAAQTGHLEIFEVLLKAGADVNAKNDKRVTPLHLAAALGHLEIVEVLLKAGADVNARDSWGTTPADLAAKYGHQDIAEVLQKAA",Kd,[5],15 nM
same,koff,[5],0.0013 s⁻¹
same,kon,[5],89000 M⁻¹ s⁻¹
same,EC50,[2],50 to 100 nM
"DARPin® protein A (with HSA) (designed binder, The MOLECULES list holds the half-life extended forms of B, C and D only; also called DARPin® protein A with half-life extension) single chain: DLGQKLLEAAWAGQDDEVRELLKAGADVNAKDSQGWTPLHTAAQTGHLEIFEVLLKAGADVNAKDDKGVTPLHLAAALGHLEIVEVLLKAGADVNAQDSWGTTPADLAAKYGHEDIAEVLQKAA",binding result,[6],no binding (tested: about 3000 nM)
"DARPin® protein D with half-life extension (tetraspecific format: His-tag, HSA-specific domain, TAA2-specific domain, TAA3-specific domain, DARPin® protein #4) (designed binder, not shown: large carriers; small tags and cut ends, also called half-life extended DARPin® protein D; DARPin® protein #H) DLGQKLLEAAWAGQLDEVRILLKAGADVNAKNSRGWTPLHTAAQTGHLEIFEVLLKAGADVNAKTNKRVTPLHLAAALGHLEIVEVLLKAGADVNARDTWGTTPADLAAKYGHRDIAEVLQKAA",EC50 (read off the curve),[6],~20 nM
"SEQ ID NO 1 (designed binder, also called CD3-specific domain of DARPin® protein #1) DLGQKLLEAAWAGQDDEVRELLKAGADVNAKDSQGWTPLHTAAQTGHLEIFEVLLKAGADVNAKDDKGVTPLHLAAALGHLEIVEVLLKAGADVNAQDSWGTTPADLAAKYGHEDIAEVLQKAA",binding result,[7],binds
